Drawing on publication PMC3166162, “A Dual Binding Mode for RhoGTPases in Plexin Signalling” (PLoS Biology, 2011), this text covers stoichiometry N, binding result and Kd for two molecules.

What is called stoichiometry N is the number of molecules, sites or subunits per partner or assembly. Broadly, the Kd is the concentration at which binding is half-saturated.

Test [1] concerns the target Plexin-B1_(cyto) (entire cytoplasmic domain of human Plexin-B1, residues 1511-2135) (human) (UniProt O43157). In words: crystal structure; Plexin-B1_(cyto) and Rac1* mixed 1:1.2; 1 M Li2SO4, 0.5 M ammonium sulphate, 0.1 M citrate pH 5.6; 4.4 Å; three complexes in the asymmetric unit.
The target in test [2] is T1, Plexin-B1_(cyto) Arg1921Ala (human, UniProt O43157-1 1511-2135, Arg1921Ala, biotin, added enzymatically within the engineered C-terminal tag).
T1 construct: human Plexin-B1, cytoplasmic region, residues 1511-2135; also called Arg1921Ala^Plex; site B mutant; source: HEK 293T cells, transfected, purified; not shown: engineered tag for enzymatic biotinylation, C-terminal, kept
The test is described as follows: SPR; Biacore T100, 25°C, standard buffer with 0.05% (v/v) Tween 20; biotinylated plexin constructs on streptavidin surfaces (500-5,000 RU); RhoGTPase injected, 120 nM to 500 µM; equilibrium responses fitted to a 1:1 Langmuir model. The settings on record: both partners purified.
T1 sequence (O43157 1511-2135 R1921A): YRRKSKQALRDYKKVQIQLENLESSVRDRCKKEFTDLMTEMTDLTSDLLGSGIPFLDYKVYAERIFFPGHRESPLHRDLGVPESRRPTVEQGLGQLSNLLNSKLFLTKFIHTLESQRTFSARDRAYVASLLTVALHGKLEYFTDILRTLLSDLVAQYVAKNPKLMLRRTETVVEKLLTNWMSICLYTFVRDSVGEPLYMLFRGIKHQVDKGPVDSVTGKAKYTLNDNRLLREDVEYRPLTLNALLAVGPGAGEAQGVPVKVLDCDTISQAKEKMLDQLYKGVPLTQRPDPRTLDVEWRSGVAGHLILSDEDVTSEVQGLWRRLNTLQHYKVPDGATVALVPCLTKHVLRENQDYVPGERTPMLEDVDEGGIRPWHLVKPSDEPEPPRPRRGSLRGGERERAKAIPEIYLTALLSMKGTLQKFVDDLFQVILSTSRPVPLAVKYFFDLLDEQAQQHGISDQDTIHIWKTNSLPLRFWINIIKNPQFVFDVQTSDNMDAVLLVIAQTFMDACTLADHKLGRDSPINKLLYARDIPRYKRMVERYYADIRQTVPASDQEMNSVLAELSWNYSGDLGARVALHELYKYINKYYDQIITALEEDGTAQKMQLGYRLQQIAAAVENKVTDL

The target of test [3] is T2, Plexin-B1_(cyto), wild type, biotinylated within an engineered C-terminal tag for SPR (human, UniProt O43157-1 1511-2135, biotin, added enzymatically within the engineered C-terminal tag).
T2 construct: human Plexin-B1, cytoplasmic region, residues 1511-2135; also called Plexin-B1cyto WT; full-length Plexin-B1_(cyto); source: purified; mutant constructs for SPR: HEK 293T; not shown: engineered tag for enzymatic biotinylation, C-terminal, kept
T2 sequence (O43157 1511-2135, change not shown): as the sequence (O43157 1511-2135 R1921A) above, with A411R counted along it
The test is described as above. The settings on record: both partners purified.

Test [4] has as its target T3, Plexin-B1_(cyto) Leu2036Arg (human, UniProt O43157-1 1511-2135, Leu2036Arg, biotin, added enzymatically within the engineered C-terminal tag).
T3 construct: human Plexin-B1, cytoplasmic region, residues 1511-2135; also called Leu2036Arg^Plex; site B mutant; source: HEK 293T cells, transfected, purified; not shown: engineered tag for enzymatic biotinylation, C-terminal, kept
The test is described as above. The settings on record: both partners purified.
T3 sequence (O43157 1511-2135 L2036R): as the sequence (O43157 1511-2135 R1921A) above, with A411R, L526R counted along it

Test [5] concerns the target T4, Plexin-B1_(cyto) Thr1920Glu (human, UniProt O43157-1 1511-2135, Thr1920Glu, biotin, added enzymatically within the engineered C-terminal tag).
T4 construct: human Plexin-B1, cytoplasmic region, residues 1511-2135; also called Thr1920Glu^Plex; site B mutant; source: HEK 293T cells, transfected, purified; not shown: engineered tag for enzymatic biotinylation, C-terminal, kept
The test is described as above. As to conditions: both partners purified.
T4 sequence (O43157 1511-2135 T1920E): as the sequence (O43157 1511-2135 R1921A) above, with T410E, A411R counted along it

Test [6] has as its target T5, Plexin-B1Δ2 Leu1815Glu (human, UniProt O43157-1 1543-2135, Leu1815Glu, biotin, added enzymatically within the engineered C-terminal tag).
T5 construct: human Plexin-B1, cytoplasmic region lacking the N-terminal helix, residues 1543-2135; also called site A Plexin-B1Δ2 mutant Leu1815Glu^Plex; source: HEK 293T cells, transfected, purified; not shown: engineered tag for enzymatic biotinylation, C-terminal, kept
The test is described as follows: SPR; as a1, high coupling density: 5,000 RU of the plexin construct loaded on the chip; RhoGTPase 120 nM to 2,000 µM. The settings on record: both partners purified.
T5 sequence (O43157 1543-2135 L1815E): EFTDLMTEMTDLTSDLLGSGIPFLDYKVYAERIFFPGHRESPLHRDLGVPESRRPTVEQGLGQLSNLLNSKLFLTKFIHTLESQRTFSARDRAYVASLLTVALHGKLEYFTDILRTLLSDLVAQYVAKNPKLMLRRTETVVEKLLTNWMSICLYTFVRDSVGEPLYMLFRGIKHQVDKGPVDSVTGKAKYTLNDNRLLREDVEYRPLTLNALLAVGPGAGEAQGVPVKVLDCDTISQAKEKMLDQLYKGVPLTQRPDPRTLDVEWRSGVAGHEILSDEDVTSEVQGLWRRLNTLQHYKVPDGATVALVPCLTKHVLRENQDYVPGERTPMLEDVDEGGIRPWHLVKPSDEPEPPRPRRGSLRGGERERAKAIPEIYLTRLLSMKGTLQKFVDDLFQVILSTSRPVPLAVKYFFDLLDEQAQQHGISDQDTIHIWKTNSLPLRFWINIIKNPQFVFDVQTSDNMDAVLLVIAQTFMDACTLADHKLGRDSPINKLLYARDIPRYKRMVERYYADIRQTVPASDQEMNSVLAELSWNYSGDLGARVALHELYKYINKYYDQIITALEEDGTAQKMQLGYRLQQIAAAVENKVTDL

Test [7] has as its target Plexin-B1_(cyto) Arg1921Ala (human, UniProt O43157-1 1511-2135, Arg1921Ala, biotin, added enzymatically within the engineered C-terminal tag). The test is described as follows: SPR. A general note: SPR reads the build-up and loss of mass on a sensor chip optically.
Target sequence in this assay (O43157 1511-2135 R1921A): as the sequence (O43157 1511-2135 R1921A) above
Test [8] deals with Plexin-B1_(cyto) Thr1920Glu (human, UniProt O43157-1 1511-2135, Thr1920Glu, biotin, added enzymatically within the engineered C-terminal tag). The test is described as follows: SPR.
Target sequence in this assay (O43157 1511-2135 T1920E): as the sequence (O43157 1511-2135 R1921A) above, with T410E, A411R counted along it
Test [9] has as its target Plexin-B1_(cyto) Leu2036Arg (human, UniProt O43157-1 1511-2135, Leu2036Arg, biotin, added enzymatically within the engineered C-terminal tag). In words: SPR.
Target sequence in this assay (O43157 1511-2135 L2036R): as the sequence (O43157 1511-2135 R1921A) above, with A411R, L526R counted along it
Test [10] has as its target Plexin-B1Δ2 Leu1815Glu (human, UniProt O43157-1 1543-2135, Leu1815Glu, biotin, added enzymatically within the engineered C-terminal tag). The test is described as follows: SPR; surface 5,000 RU.
Target sequence in this assay (O43157 1543-2135 L1815E): as the sequence (O43157 1543-2135 L1815E) above

As to “Plexin-B1_(cyto) (entire cytoplasmic domain of human Plexin-B1, residues 1511-2135) (from UniProt O43157-1 1511-2135) (domain or fragment)”, the stoichiometry N in test [1] was determined as 3.

B1: Rnd1 (residues 5-200) (enzyme, human, UniProt Q92730 5-200, looked up)
chain: RAPQPVVARCKLVLVGDVQCGKTAMLQVLAKDCYPETYVPTVFENYTACLETEEQRVELSLWDTSGSPYYDNVRPLCYSDSDAVLLCFDISRPETVDSALKKWRTEILDYCPSTRVLLIGCKTDLRTDLSTLMELSHQKQAPISYEQGCAIAKQLGAEIYLEGSAFTSEKSIHSIFRTASMLCLNKPSPLPQKSPV
notes: human Rnd1, residues 5-200; source: E. coli BL21 Star, purified
As to B1, the binding result (in test [2]; in [4]; in test [5]; in the test with Plexin-B1Δ2 Leu1815Glu [6]) was “binds” in each case. For the same molecule, the Kd in test [3] worked out at 22.9 µM; in test [7], 15.2 µM; in test [8], 14.2 µM; in test [9], 16.5 µM; in the test with Plexin-B1Δ2 Leu1815Glu [10] it was 486 µM.
